Here are results for 1 substance from PMC11880808.

In general, Kd refers to the equilibrium constant for the complex coming apart.

In experiment [1] the target is cynomolgus monkey IL-2 receptor alpha (IL-2Rα) (cynomolgus monkey). The experiment in a line: BLI; Octet; who was immobilised, temperature and buffer are not told. (Biolayer interferometry detects binding as a change in optical thickness at a sensor tip.)
The target in experiment [2] is cynomolgus monkey IL-2 receptor beta and gamma (IL-2Rβγ) complex (cynomolgus monkey) (UniProt Q38J85). The experiment is described as above.

For the substance “recombinant human IL-2 (from UniProt P60568 21-153) (ligand)”, the dissociation constant (Kd) in experiment [1] was 19.9 nM; in experiment [2] it was 1.29 nM.
